Assay results as given in article PMC3912200, “Structural and Functional Characterization of Cargo-Binding Sites on the μ4-Subunit of Adaptor Protein Complex 4” (PLoS ONE, 2014).

Test system: APP-GFP
Experiment: Distribution of APP-GFP in H4 neuroglioma cells
Type: cell-based, human
Settings: untagged; 36 h; APP-GFP F615P/D664A; TGN46, EEA1 staining
Experimental: H4 human neuroglioma or MDA-MB-231 human mammary gland epithelial cells obtained from the American Type Culture Collection (Manassas, VA) were maintained in DMEM (H4) or DMEM/F12 (MDA-MB-231) supplemented with 10% (v/v) fetal bovine serum (FBS), 100 U/ml penicillin and 100 µg/ml streptomycin (Life Technologies). Transfections were carried out using Lipofectamine 2000 (Life Technologies) for 1 h at 37°C in the absence of FBS, and cells were analyzed 16, 24 or up to 36-h after transfection, for which we observed no notorious signs of loss in cell viability. SDS-PAGE, immunoblotting, and immunoprecipitation were performed as described. […]
Indirect immunofluorescence staining of fixed, permeabilized cells was performed as previously described, using sheep polyclonal antibody anti-TGN46 (Serotec), and mouse monoclonal antibody anti-EEA1 (BD Biosciences) or rabbit polyclonal antibody anti-EEA1 (Santa Cruz Biotechnology), followed by the secondary antibodies Alexa-647–conjugated donkey anti-mouse IgG, Alexa-594–conjugated donkey anti-rabbit IgG, or Alexa-594– or -647–conjugated donkey anti-sheep IgG (Life Technologies). […] Quantitative analysis of colocalization was performed as we previously described, with minor modifications. […]

B1: µ4-F255A: untagged full-length μ4-F255A, overexpressed (protein, UniProt O00189 1-453, looked up, variant F255A)
chain: MISQFFILSSKGDPLIYKDFRGDSGGRDVAELFYRKLTGLPGDESPVVMHHHGRHFIHIRHSGLYLVVTTSENVSPFSLLELLSRLATLLGDYCGSLGEGTISRNVALVYELLDEVLDYGYVQTTSTEMLRNFIQTEAVVSKPFSLFDLSSVGLFGAETQQSKVAPSSAASRPVLSSRSDQSQKNEVFLDVVERLSVLIASNGSLLKVDVQGEIRLKSFLPSGSEMRIGLTEEFCVGKSELRGYGPGIRVDEVSAHSSVNLDEFESHRILRLQPPQGELTVMRYQLSDDLPSPLPFRLFPSVQWDRGSGRLQVYLKLRCDLLSKSQALNVRLHLPLPRGVVSLSQELSSPEQKAELAEGALRWDLPRVQGGSQLSGLFQMDVPGPPGPPSHGLSTSASPLGLGPASLSFELPRHTCSGLQVRFLRLAFRPCGNANPHKWVRHLSHSDAYVIRI
modifications: full-length
notes: untagged full-length μ4-F255A, overexpressed
APP redistribution (figure title): APP redistributes from endosomes to the TGN
